Columns and labels:
[1] = target: SaDnaI^AAA+ (residues 136-306) (UniProt Q3ZUA6); assay: competition-based fluorescence anisotropy assay; conditions: read at the highest unlabeled competitor concentration (last point, just beyond the 10 µM tick); the competitor displaces N-terminally labeled wild-type …; parent: est. 20; read off a plot
[2] = target: SeMet-SaDnaI^AAA+ (Staphylococcus aureus) (UniProt Q3ZUA6); assay: crystal structure; ADP•BeF3-bound SaDnaI^AAA+•77ORF104 complex, SeMet SAD, 1.9 Å; complex formed with two-fold excess of 77ORF104
[3] = target: SaDnaI^AAA+ (residues 136-306) (Staphylococcus aureus) (UniProt Q3ZUA6); assay: fluorescence polarisation; anisotropy-based competition; 20 nM labeled 77ORF104 and 2 µM SaDnaI^AAA+, unlabeled 77ORF104 or mutant titrated; 50 mM HEPES-KOH pH 7.5, 125 mM KCl, 10% glycerol, 5 mM MgCl2, 1 mM DTT; apparent
[4] = target: N-terminally labeled, wild-type 77ORF104 (Staphylococcus bacteriophage 77); assay: fluorescence polarisation; fluorescence anisotropy; 20 nM N-terminally AlexaFluor 488-labeled 77ORF104, unlabeled protein titrated in 2-fold steps; 50 mM HEPES-KOH pH 7.5, 125 mM KCl, 10% glycerol, 5 mM MgCl2, 1 mM DTT; single-site fit; apparent
[5] = target: the molecule itself; assay: centrifugal pelleting assay; 90 µM SaDnaI with or without 180 µM 77ORF104, 20 min on ice, 14,000 x g 1 min; 20 mM HEPES-KOH pH 7.5, 100 mM NaCl, 10% glycerol, 5 mM MgCl2, 6 mM ATP; SDS-PAGE of pellet and supernatant
[6] = target: the molecule itself; assay: SEC; analytical gel filtration, 5/150 GL Superdex 200; 20 mM Tris-HCl pH 8.0, 200 mM NaCl, 5% glycerol, 5 mM MgCl2, 1 mM BME, 10 mM ATP; 7 µM SaDnaC, 14 µM SaDnaI, 14 µM 77ORF013, 30 µM 77ORF104; peak fractions on SDS-PAGE

## phage 77 ORF104 protein Y17E
[1]
  response: 57 mA

## phage 77 ORF104 protein
[2]
  stoichiometry N: 1

## phage 77 ORF104 protein (natural protein)
[3]
  Ki: 1620 nM

## phage 77 ORF104 protein K39E
[1]
  response: 26 mA

B1: SaDnaI^AAA+ (residues 136-306) (domain or fragment)
chain: DRLDVAMAADDICTAITNGEQVKGLYLYGPFGTGKSFILGAIANQLKSKKVRSTIIYLPEFIRTLKGGFKDGSFEKKLHRVREANILMLDDIGAEEVTPWVRDEVIGPLLHYRMVHELPTFFSSNFDYSELEHHLAMTRDGEEKTKAARIIERVKSLSTPYFLSGENFRNN
[4]
  Kd: 49 nM

B2: full-length Staphylococcus aureus DnaI (natural protein, UniProt Q3ZUA6 1-306, looked up)
chain: MKQFKSIINTSQDFEKRIEKIKKEVINDPDVKQFLEAHRAELTNAMIDEDLNVLQEYKDQQKHYDGHKFADCPNFVKGHVPELYVDNNRIKIRYLQCPCKIKYDEERFEAELITSHHMQRDTLNAKLKDIYMNHRDRLDVAMAADDICTAITNGEQVKGLYLYGPFGTGKSFILGAIANQLKSKKVRSTIIYLPEFIRTLKGGFKDGSFEKKLHRVREANILMLDDIGAEEVTPWVRDEVIGPLLHYRMVHELPTFFSSNFDYSELEHHLAMTRDGEEKTKAARIIERVKSLSTPYFLSGENFRNN
notes: Staphylococcus aureus helicase loader DnaI, residues 1-306 by the limits of the domain constructs; Residues 136-306 are in PDB 5HE8 and 5HE9; also called SaDnaI; FL SaDnaI; not shown: His6, N-terminal, cleaved; MBP, N-terminal, cleaved
[5]
  binding result: binds

B3: SaDnaC replicative helicase (natural protein, Staphylococcus aureus, UniProt Q9AQH7 1-466, looked up)
chain: MDRMYEQNQMPHNNEAEQSVLGSIIIDPELINTTQEVLLPESFYRGAHQHIFRAMMHLNEDNKEIDVVTLMDQLSTEGTLNEAGGPQYLAELSTNVPTTRNVQYYTDIVSKHALKRRLIQTADSIANDGYNDELELDAILSDAERRILELSSSRESDGFKDIRDVLGQVYETAEELDQNSGQTPGIPTGYRDLDQMTAGFNRNDLIILAARPSVGKTAFALNIAQKVATHEDMYTVGIFSLEMGADQLATRMICSSGNVDSNRLRTGTMTEEDWSRFTIAVGKLSRTKIFIDDTPGIRINDLRSKCRRLKQEHGLDMIVIDYLQLIQGSGSRASDNRQQEVSEISRTLKALARELKCPVIALSQLSRGVEQRQDKRPMMSDIRESGSIEQDADIVAFLYRDDYYNRGGDEDDDDDGGFEPQTNDENGEIEIIIAKQRNGPTGTVKLHFMKQYNKFTDIDYAHADMM
notes: Staphylococcus aureus replicative helicase DnaC (a DnaB-family helicase); also called S. aureus DnaC replicative helicase; host helicase; not shown: His6, N-terminal, cleaved; MBP, N-terminal, cleaved
[6]
  stoichiometry N: 2
